According to the supplement of paper PMC12636428:

Tested on: Saccharomyces cerevisiae
Assay: transcriptional activation domain activity (GFP:mCherry ratio, weighted mean of sorted bins, harmonized to initial dataset scale) (arbitrary fluorescence ratio units); higher = stronger transcriptional activation
Conditions: beta-estradiol 1 µM; induction time 4 h
How it was run: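 Each value is an activation activity: the read-weighted mean of bin median fluorescence, averaged across barcodes, then mapped linearly to the initial dataset scale. The tiles, fused to an estradiol-inducible synthetic transcription factor, sat at the yeast URA3 locus in GFP-reporter diploids. Cells spent 4 hours at 30 °C in SC with 1 uM beta-estradiol before sorting into 8 GFP:mCherry bins, and tiles below 50 reads were removed.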

| Sequence | transcriptional activation domain activity |
| --- | --- |
| KVDNGRKVDNGGKVDGRKVDNGGKVDDGRSVNDRGRADKGGGVVKGGRLVEGG | 24900 |
| KVEIRERDARSVVKLRSGANVPVTESTHGLDGGTGQDVHILVAQTKSKKFNRH | 49800 |
| KVERGREVRKKAREEREKRGATGGGRGKGRGKGKGKGRDGERGKSAAEEGAGA | 10800 |
| KVGFVLIFLFALLVFTSIICSPIYVFSVPYSSICISLQVHRCCLFYGAVIWFV | 31300 |
| KVISLLYSNRESSYLEDTCPTENDYSDLLKGYINEIEKTLPPKAIIEQYLSHF | 51100 |
| KVKAEGEASDGGAPAPDAEGGAADDSAAGKKAARVRKPKAPRAPRPAGEDPVG | 34200 |
| KVKKEKKEKKHRRHHHRHRDGSDDERSHKRRRRDDDKRGHRSSRSEHRRRSDS | 29800 |
| KVKKKRRRSDSSDEDAIAALKAKRKKKKRADSDSDEEETSRKKSKSKRRRKAD | 42800 |
| KVNQRKENKNNKNDEDNDDDNDDEEGKEKDKEEEKKDKKKKNKKCKHKKNKNK | 21700 |
| KVNTNNDVNENNDLWNSYLQSMDDTTGKNSGNYQQVDNDDNMSLLNLPILEET | 90400 |
| KVRAKEIVILPSEEDDNYKPLDTSNATTSSSEPRVDVVQEGLFREALNENDGK | 32500 |
| KVSFLFGVWFFFSFEVLGFFDFFPSFLSFRRIFFIIFILYFIIYLYVVFFVSF | 73700 |
| KVVLLFAGWIIKIIVAKLMLAWSQSMRKVIVQRAQLVYRFGINGMVFYSIGCA | 60400 |
| KVVLTERLARGKAEIKDLQVCFECMSLVGMKINIFKGNGFMWTIACSVLFQKG | 52100 |
| KVVQQFCGCHSRAANGCSGDELLRQYDYDEEDTVSSNRRFANETCRVAVLTVR | 65900 |
| KWHSTMQSAAARGTRVLHDKRRSRVKREGGEGGGGKEERRRQRRRTCATCTRL | 29700 |
| KWIIPTPFASHAFNPCDGFLQSLPYHIYVYMIPMHKYLYLLMFVLVNFWTVMI | 49700 |
| KWIVPTPFASHAFHCLDGYFQSIPYHLYVYLVPMQKWLYISMFLFVNVWTVMI | 48400 |
| KWKEKRSRNDEADGERGAERKPRKRSRSPRRRKEPEAAPERKQQEKPASAAPA | 45600 |
| KWLCYVELMNILTLGWPLSNIHFYICKYCAGWFRKYNYLFGTGINGGAQIFVL | 66700 |
| KWLGECLNAAIAVFLYIYFLLHVGLLHLSHFFFFFFDLFSPVYTLSLQMVLYL | 53800 |
| KWVAHSVVEKCVLLLILWHRYAMDVVRECSEAWEKLITGKTAPNGISTTNLTV | 31500 |
| KWVLSILEFFVVHGFFSVTRKNAKSSLQAIHHVPNPKFSDTMKQRCRDRLFTC | 51700 |
| KYAYGCDELIFNPLVHWWKMGPINKQLRTFVWSDAPVHYKVTMLSYMFSYYGI | 50100 |
| KYEEQEDKDEEEEEKEEEEEEEEEEEEEEEGKRGEGKKATAKRRSKGSAYGGK | 17300 |

| Sequence | transcriptional activation domain activity |
| --- | --- |
| KYLFQSQRFGGHFFQIQVVLRDIEKYLEEVHQFMLQVNIMVLGFHAMLDKAFQ | 55900 |
| KYLIQSLILYPVPLLQVIITYFVQIKRYDISTVVGCSLLNVYYPNWMFLVFFL | 58800 |
| KYLSTCLKSCNTQLLDGILNTFARIFLSLGHLVEIMPELGTSILFQTYLFALQ | 52900 |
| KYNLALILAGFFRFIPWISVLLLLLLSLSPRARSLFPWPISSILLLYTLADTI | 39400 |
| LACFLGLTFTLFLLIYFFFLSIFSFIILSLLCVLHHSACLPCLNFHMLPFCPF | 61100 |
| LACIVVCVIVYVVLTLLPLFYRDCPYLTPMSGPLWRFLQAFQFVSIVSFRRIY | 41900 |
| LADNKFSYLPPTLEELMEEQDCNNGRSFKNFMFSNDTGIDGSAGTDDDYTKVL | 60000 |
| LADYMCDYSGSLIGKHFKTLAQIMPFAIQDLVPSSVQAAWLLIGRLVVLLWVT | 52900 |
| LAEEEGEEEEGESVTPTDDKIIVKLRGKDNTDTSLRVKQTTLIRSVISSYKKI | 64100 |
| LAEGAATEEAKTEEGSAPAGETAALAEAAATEEAAATEEVKEEKKEEAATTKA | 29900 |
| LAELVPKLDDSTVQYAYVRQEYANDSESTRVKFALIIWIGQSTKVMRKARVSI | 52800 |
| LAESQRQNQQGGRGRGGRSLFDRTERGRGNRRGGHQGNGHHARQDEAANGGAE | 17600 |
| LAEVILLPDLCGFCCFSMRFVVLLDLIGTLTLPVTCLYLIYLIYVMASGNGPF | 50300 |
| LAGGLGFFLWLLPTWWVLFACVGFLVWLFWSPVVLVASVGFVAWKLGYWWVLW | 24100 |
| LAHCGCSQSLLLLLFSFPYRYYIILFHYWVLRGGLTIPIYRVLCGFFLPSFVL | 62200 |
| LAHCRAVVIRRVDGTAFEPVLRQAESLAVARTWLDRLFLCAYWMLTWFLADIV | 56400 |
| LAHFVIHRGLIISIMQAVFSAIFYFAPIALYQGMLLVGYTTVYTMWPLFSLVL | 58500 |
| LAILMDGLNRILLTHKDDIGIVARVMLAYMTAATRFKRLFISGGGYMLFMPAV | 59800 |
| LAKARCGCCFQIGSLVELIKLCLLIMLLVVIYFVTVQALIAVLVSSKLCILVP | 43800 |
| LALCQLKFWAIFSSIKHVNGLLKHSYPFDRSNFNVLVKSLIRGMFYKFQERQD | 40100 |
| LALFGMKMVEAIMTMIHMDFRYCDFLGILPLLIFLIPCHYFYTLLKIKALLTY | 60600 |
| LALIRGGSHVGQVTFDRHSIASEGVVWCLAVKFKGVTLNLSWSEAVYRWFHVL | 57300 |
| LALLTPGPSHVDPEYGTFQSLLFFFGLCTFLTTLTGIASSYIFWLYCSVLLLA | 52100 |
| LALNDISRSVVAAGRVDGAVHITGVRDAVVAVAARQVRVHECRNVDLYLRCAS | 44800 |
| LALQRMDWHSVFRKTFYESRSWLHLLTNFSRIWIMHISAFWYYMAANIDFFYR | 56400 |

| Sequence | transcriptional activation domain activity |
| --- | --- |
| LALQTMYFIPDIPQQALVDFWPRIWPWVQFFDIYGDIIRLCPPLQLYWVFFAY | 25500 |
| LALVIDVRFPKHPTMSNYSLVCAVRALLDFVELARYPVHTDATLRLLNDALRV | 51200 |
| LAMQGFFRTFGLLCINFDSAFRLATFFLPNMIQYTGYLIPTFQMKRWLFWISY | 43200 |
| LANGLVVVLHTEAYDLPDNFASNCWFVIYYTNNSYLRFSSIYRYIFSIVIIVL | 45800 |
| LANISLFTSFHQTDINWCGPTRLRWFGYCFCGMFVYYWLPGYFFQILTFFSWA | 73700 |
| LAPFLAWLLSLLLQFFVFFLCYNYCTCFFTCLFTCLFCPFRWLQLLLYSIITT | 44000 |
| LAQAFFASMPVVCFLTFGLFVLFALVAGFLFFTLFWVGLAFCVLVPVLVVTFC | 49000 |
| LAQDPAGEQKKRRGRPPRYNVKLEPGEGDGAVTAPVKARKRKRESETPLSAPP | 33600 |
| LARFACLTCDHNWLEDLIFGATDAIEEAFFANDITCLVFWLYNTTLWLHLMQC | 51400 |
| LARVLTDFPMIFVMCTVFCIILYFMSGFAMEASKFWIFYLFVYVTTFCITALY | 46200 |
| LARVYIRVFVLRVFRLDDYFIVVAMLCSILACSIFLWVVHLGMGKHFFALPPE | 63900 |
| LASISSLQSSQSLDQNFSIPQSPPLSSMSFNFLTGNINETNQNHSNHQHSKSG | 22700 |
| LASIVMFRTFHEGSTWTGLTRTRMFWYVFLFSFFWYWVPGYIMPILSFFSILC | 69200 |
| LASLTPLISRRTPATTHARPHSTTQIPHRHHSAEMAEEQKPVVVADAPAAPAV | 27800 |
| LASRNPPTATSPCTRTPAPAPAPRTASTTRASTPCTASTAPRAATSAACSPAA | 53100 |
| LATTDLTHRQNGEEPIQNEIAKLFHSGGDSVVDILFSQTSATEFVTVGGTGNV | 64400 |
| LAYLVMQGFFRTFGLMCFNFDSAFRLAVFFIPNFVEYTGYILPVISMQRWLFW | 63100 |
| LCAEEYRWHWRAFLTGGGSAFWLLAYGLFFWASRLSLHSMSSAILYLGYLFLL | 77800 |
| LCAPIEVFRNICLPFVRLLHPLFFLSLLVFVEIIFPLFIPLTLLHCFLVLFGV | 55100 |
| LCASSLIWMTVSRHHLPPTIANLPATTLLILTFISLLLSIFLQFLFWALLFFW | 65300 |
| LCDNVTTQWREWMFPHNETLPALGQDGINEDNLNETIDNMLIFDFLDDGSENN | 109000 |
| LCFVFVLNIQAVLAVLWVIATKWIVIGRRRDGQYAWDSSSYCQRWQLHLVLSR | 71600 |
| LCIDDKYILIYGQEDSNHKVTVRKVTLQLFMCLINYTVRNILWWSLSGLITGF | 38400 |
| LCIGIVLIAAFIAYEYLMVSGRVLARHLPHQKSMLPWELITNKDLGLLFYVNF | 44400 |
